From paper PMC7092865
Where two headings read alike, the source gives them in different places.

Tests used:
SUDc5b [1] = target: T1, SUDc5b (SARS coronavirus TOR2, UniProt P0C6U8 1207-1380); experiment: EMSA
SUD full-length (Nsp3c) [2] = target: T2, SUD full-length (Nsp3c) (SARS coronavirus TOR2, UniProt P0C6U8 1167-1544); experiment: EMSA
SUD full-length (Nsp3c) [3] = target: T2, SUD full-length (Nsp3c); experiment: EMSA; remark: listed apart in the source
SUDc5b [4] = target: T1, SUDc5b; experiment: EMSA; remark: listed apart in the source
SUDc5b [5] = target: T1, SUDc5b; experiment: zone-interference gel electrophoresis

GGGUGACACUGGGGGGGGGGGGGGCUCUCCUCUCGGUGCUCCUUCACUC (ssRNA) [bbc3-G14 RNA]
binding result (SUDc5b [1]): binds | binding result (SUD full-length (Nsp3c) [2]): binds

GGGUGACACUAAAAAAAAAAAAAACUCUCCUCUCGGUGCUCCUUCACUC (ssRNA) [bbc3-A14 RNA]
binding result (SUD full-length (Nsp3c) [3]): no binding | binding result (SUDc5b [4]): no binding

ATGTAATGCGGGGGGCACTACGTT (ssDNA) [3(-)]
Kd (SUDc5b [5]): ~1000 nM

CATCTATGAGGGGGGTTTACTATC (ssDNA) [2(+)]
Kd (SUDc5b [5]): ~1000 nM
